# Assay results as given in patent publication US20180282401A1 (AXON NEUROSCIENCE, published 2018).
# T1: 259-288/4R
# T1 peptide: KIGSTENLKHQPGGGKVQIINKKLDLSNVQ
# T2: 281-305/4R
# T2 peptide: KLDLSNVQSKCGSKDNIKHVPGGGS
# T3: 259-288/3R (not fully specified)
# T3 peptide: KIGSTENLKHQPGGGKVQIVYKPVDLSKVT
# T4: 282-311/4R
# T4 peptide: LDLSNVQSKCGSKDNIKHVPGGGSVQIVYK
# T5: 264-293/3R
# T5 peptide: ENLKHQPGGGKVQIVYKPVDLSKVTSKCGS
# T6: 291-320/4R
# T6 peptide: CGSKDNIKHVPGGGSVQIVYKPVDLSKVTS
# T7: 314-342/R4
# T7 peptide: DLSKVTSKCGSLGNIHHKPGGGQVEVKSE
# T8: 264-293/4R
# T8 peptide: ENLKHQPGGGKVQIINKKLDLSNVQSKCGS
# T9: 256-285/4R
# T9 peptide: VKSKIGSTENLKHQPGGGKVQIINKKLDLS
# T10: 256-285/3R (not fully specified)
# T10 peptide: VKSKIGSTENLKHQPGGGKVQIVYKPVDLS
# B1: monoclonal antibody DC8E8 (antibody, V domains shown)
# VH: QVQLQQSGPELVKPGTSVKMPCKASGYIFTDYVISWVKQRTGQGLEWIGEIFPRSGSTYYNEKFKGKATLTADKSSNTAYMQLSSVTSEDSAVYFCARDYYGTSFAMDYWGQGTSVTVSS
# VL: DIVMSQSPSSLAVSAGEKVTMSCKSSQSLLNSRTRKNYLAWYQQKPGQSPKLLIYWASTRESGVPDRFTGSGSGTDFTLTISSVQAEDLAVYYCKQSFYLRTFGGGTKLDIK
# notes: also called mAb DC8E8; antibody of hybridoma ATCC PTA-11994
# Columns and labels:
# [1] = target: B1; assay: competition ELISA: peptide pre-incubated with DC8E8, binding to plate-coated tauΔ(1-150;392-441)4R measured
# Experimental: The coated ELISA plates were washed 4 times with PBS/Tween 20 (phosphate-buffered saline supplemented with 0.05% v/v Tween 20), and blocked with PBS/Tween 20 for 2 h at 25° C. Each of the peptides was separately dissolved in PBS at the final concentration of 5 mM. […] The antibody/peptide mixtures were incubated for 1 hr at 25° C. on a rotating platform set to 250 rpm. One hundred microliters of the antibody/peptide mixtures were then transferred into the prepared ELISA plates and incubated for 1 hr at 25° C. on a rotating platform set to 250 rpm. The ELISA plates were washed 4× times with PBS/Tween 20. The ELISA plates were then incubated with 100 μl of Polyclonal Goat Anti-Mouse Immunoglobulins/HRP (Dako, #P0447) diluted 1:4 000 in PBS/Tween 20 and incubated for 1 hr at 25° C. on a rotating platform set to 250 rpm. The ELISA plates were washed 4× times with PBS/Tween20. […] The developed signal was measured by reading at 490 nm (e.g. using the Victor Multilabel Counter (Wallac).
# tauΔ(1-150;392-441)/4R [2] = target: T11, tauΔ(1-150;392-441)/4R (human, UniProt P10636 468-708); assay: SPR (BIACORE3000, CM5), DC8E8 captured by anti-mouse antibody, tau protein injected, 25 °C, PBS-P, two-phase reaction model
# T11 construct: Recombinant truncated human tau, numbered on 2N4R; also the transgene of SHR72 rats; also called misdisordered tau; pathological tau
# T11 sequence (P10636 other isoform, or with tags, fused parts or gaps mutant limits assumed): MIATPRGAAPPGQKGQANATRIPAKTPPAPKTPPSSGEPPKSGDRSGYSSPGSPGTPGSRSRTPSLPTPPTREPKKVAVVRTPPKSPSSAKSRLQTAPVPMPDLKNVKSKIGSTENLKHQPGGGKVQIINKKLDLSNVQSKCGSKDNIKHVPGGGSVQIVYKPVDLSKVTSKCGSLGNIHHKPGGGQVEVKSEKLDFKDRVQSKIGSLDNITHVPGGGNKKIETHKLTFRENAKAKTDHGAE
# Experimental: (§1) A BIACORE3000 instrument with a CM5 sensor chip (Biacore AB, Uppsala) was used for the SPR assays. […] These experiments were done at 25° C. in PBS pH 7.4 with 0.005% of P20 (PBS-P) as the running buffer.
# (§2) Kinetic rate constants were approximated globally, maximal responses were fitted locally, and the bulk response was set to zero.
# human tau isoform 2N4R [3] = target: T12, human tau isoform 2N4R (human, UniProt P10636 1-758); assay: as above
# T12 construct: also called tau 2N4R; tau441
# T12 sequence (P10636 other isoform, or with tags, fused parts or gaps limits assumed): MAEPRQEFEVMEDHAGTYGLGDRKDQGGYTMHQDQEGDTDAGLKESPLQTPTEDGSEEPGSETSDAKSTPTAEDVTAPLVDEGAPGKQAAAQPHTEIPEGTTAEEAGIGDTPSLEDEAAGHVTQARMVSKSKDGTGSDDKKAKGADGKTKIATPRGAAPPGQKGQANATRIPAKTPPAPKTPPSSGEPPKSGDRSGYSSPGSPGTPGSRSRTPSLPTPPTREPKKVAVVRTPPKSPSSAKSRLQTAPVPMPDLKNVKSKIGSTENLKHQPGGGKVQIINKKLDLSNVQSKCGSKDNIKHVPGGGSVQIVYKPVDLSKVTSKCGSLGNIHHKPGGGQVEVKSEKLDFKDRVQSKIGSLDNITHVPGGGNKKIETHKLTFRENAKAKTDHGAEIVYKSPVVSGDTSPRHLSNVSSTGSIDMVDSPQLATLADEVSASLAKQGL
# Experimental: as §1, §2
# tauΔ(1-150;392-441)/4R [4] = target: T11, tauΔ(1-150;392-441)/4R; assay: as above; remark: listed apart in the source
# Experimental: as §1, §2
# human tau isoform 2N4R [5] = target: T12, human tau isoform 2N4R; assay: as above; remark: listed apart in the source
# Experimental: as §1, §2
# tauΔ(1-150;392-441)/3R [6] = target: T13, tauΔ(1-150;392-441)/3R (human, UniProt P10636 468-708); assay: as above
# T13 construct: Also the transgene of SHR24 rats; also called misdisordered three repeat tau; tau type IIB (151-391/R3)
# T13 sequence (P10636 other isoform, or with tags, fused parts or gaps mutant): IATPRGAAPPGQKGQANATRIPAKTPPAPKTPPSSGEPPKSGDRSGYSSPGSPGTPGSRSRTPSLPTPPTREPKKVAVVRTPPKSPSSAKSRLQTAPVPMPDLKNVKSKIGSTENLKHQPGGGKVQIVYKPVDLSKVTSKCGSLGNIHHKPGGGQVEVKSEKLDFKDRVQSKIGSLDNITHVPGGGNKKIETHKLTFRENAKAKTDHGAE
# Experimental: as §1, §2
# human tau isoform 2N3R [7] = target: T14, human tau isoform 2N3R (human, UniProt P10636 2-758); assay: as above
# T14 construct: also called tau 2N3R; tau39
# T14 sequence (P10636 other isoform, or with tags, fused parts or gaps limits assumed): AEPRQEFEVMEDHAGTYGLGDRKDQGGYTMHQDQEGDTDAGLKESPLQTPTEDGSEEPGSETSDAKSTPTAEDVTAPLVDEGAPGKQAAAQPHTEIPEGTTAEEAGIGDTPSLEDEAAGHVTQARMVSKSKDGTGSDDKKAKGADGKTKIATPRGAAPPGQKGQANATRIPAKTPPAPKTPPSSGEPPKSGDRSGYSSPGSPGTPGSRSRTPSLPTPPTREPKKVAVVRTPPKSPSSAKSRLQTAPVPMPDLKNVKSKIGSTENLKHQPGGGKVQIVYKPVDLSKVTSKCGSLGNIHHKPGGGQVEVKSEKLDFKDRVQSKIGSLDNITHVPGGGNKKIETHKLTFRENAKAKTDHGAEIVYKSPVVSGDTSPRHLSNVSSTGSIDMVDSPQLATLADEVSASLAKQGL
# Experimental: as §1, §2
# tauΔ(1-150;392-441)/3R [8] = target: T13, tauΔ(1-150;392-441)/3R; assay: as above; remark: listed apart in the source
# Experimental: as §1, §2
# human tau isoform 2N3R [9] = target: T14, human tau isoform 2N3R; assay: as above; remark: listed apart in the source
# Experimental: as §1, §2
# 259-288/4R = target: T1, 259-288/4R; assay: ELISA, synthetic peptide coated (5 µg/ml), DC8E8 hybridoma culture supernate, anti-mouse Ig-HRP, absorbance 492 nm
# Experimental: (§3) Microtiter plates were coated overnight at 37° C. with either recombinant tau proteins or with tau peptides (5 μg/ml in PBS, 50 μl/well). […] Bound monoclonal antibody was detected with sheep anti-mouse Ig HRP-conjugated (DAKO). The reaction was developed with orthophenylenediamine solution as a peroxidase substrate and stopped with 50 μl of 2 M H₂SO₄. Absorbance was measured at 492 nm using a Multiscan MCC/340 ELISA reader (Labsystems). Readouts with an absorbance value of at least twice the value of the negative controls (PBS) were considered positive.
# 281-305/4R = target: T2, 281-305/4R; assay: as above
# Experimental: as §3
# 259-288/3R = target: T3, 259-288/3R; assay: as above
# Experimental: as §3
# 282-311/4R = target: T4, 282-311/4R; assay: as above
# Experimental: as §3
# 264-293/3R = target: T5, 264-293/3R; assay: as above
# Experimental: as §3
# 291-320/4R = target: T6, 291-320/4R; assay: as above
# Experimental: as §3
# 314-342/R4 = target: T7, 314-342/R4; assay: as above
# Experimental: as §3
# 264-293/4R = target: T8, 264-293/4R; assay: as above
# Experimental: as §3
# 275-304/4R = assay: as above
# Experimental: as §3
# 256-285/4R = target: T9, 256-285/4R; assay: as above
# Experimental: as §3
# 256-285/3R = target: T10, 256-285/3R; assay: as above
# Experimental: as §3
# tauΔ(1-150;392-441)/4R [10] = target: T11, tauΔ(1-150;392-441)/4R; assay: SPR (Biacore 3000, CM5), His-tagged scDC8E8v captured by anti-His antibody (60 RU), tau protein injected at 100 µl/min, 25 °C, 1:1 model
# human tau isoform 2N4R [11] = target: T12, human tau isoform 2N4R; assay: as above
# [12] = target: B1; assay: competition ELISA: peptide pre-incubated with DC8E8 (1 µg/ml), then on plates coated with the competitor tauΔ(1-150;392-441)/4R; peptide series 1.25-160 µM in paragraph 380, the concentration of the bars is not given
binder,measurement,setting,value
GWSIHSPGGGSC (Designed peptide keeping HxPGGG) [designer therapeutic epitope 1 GWSIHSPGGGSC (SEQ ID NO: 250)],IC50 (read off the curve),[1],2 to 3 µM
B1,koff,tauΔ(1-150;392-441)/4R [2],0.04 s⁻¹
same,kon,tauΔ(1-150;392-441)/4R [2],2.6e+06 M⁻¹ s⁻¹
same,koff,human tau isoform 2N4R [3],0.04 s⁻¹
same,kon,human tau isoform 2N4R [3],460000 M⁻¹ s⁻¹
same,Ka,tauΔ(1-150;392-441)/4R [4],7.3e+07 M⁻¹
same,Ka,human tau isoform 2N4R [5],1.1e+07 M⁻¹
same,koff,tauΔ(1-150;392-441)/3R [6],0.5 s⁻¹
same,kon,tauΔ(1-150;392-441)/3R [6],490000 M⁻¹ s⁻¹
same,koff,human tau isoform 2N3R [7],0.5 s⁻¹
same,kon,human tau isoform 2N3R [7],140000 M⁻¹ s⁻¹
same,Ka,tauΔ(1-150;392-441)/3R [8],1.1e+06 M⁻¹
same,Ka,human tau isoform 2N3R [9],290000 M⁻¹
same,binding result,259-288/4R,binds
same,binding result,281-305/4R,binds
same,binding result,259-288/3R,binds
same,binding result,282-311/4R,binds
same,binding result,264-293/3R,binds
same,binding result,291-320/4R,binds
same,binding result,314-342/R4,binds
same,binding result,264-293/4R,binds
same,binding result,275-304/4R,binds
same,binding result,256-285/4R,binds
same,binding result,256-285/3R,binds
"recombinant scFv fragment of monoclonal antibody DC8E8 (scDC8E8v) (scFv, V domains shown) VH: QVQLQQSGPELVKPGTSVKMPCKASGYIFTDYVISWVKQRTGQGLEWIGEIFPRSGSTYYNEKFKGKATLTADKSSNTAYMQLSSVTSEDSAVYFCARDYYGTSFAMDYWGQGTSVTVSS VL: DIVMSQSPSSLAVSAGEKVTMSCKSSQSLLNSRTRKNYLAWYQQKPGQSPKLLIYWASTRESGVPDRFTGSGSGTDFTLTISSVQAEDLAVYYCKQSFYLRTFGGGTKLDIK",Ka,tauΔ(1-150;392-441)/4R [10],8.1e+06 M⁻¹
same,koff,tauΔ(1-150;392-441)/4R [10],0.02 s⁻¹
same,kon,tauΔ(1-150;392-441)/4R [10],180000 M⁻¹ s⁻¹
same,Ka,human tau isoform 2N4R [11],270000 M⁻¹
same,koff,human tau isoform 2N4R [11],0.2 s⁻¹
same,kon,human tau isoform 2N4R [11],57000 M⁻¹ s⁻¹
SVFQHLPGGGSC (Designed peptide keeping HxPGGG) [designer therapeutic epitope 2 SVFQHLPGGGSC (SEQ ID NO: 251)],IC50 (read off the curve),[1],~0.03 µM
DNIKHVPGGGS (check the listing) [tau peptide 295-DNIKHVPGGGS-305 (SEQ ID NO: 171)],binding result,[12],binds
